{"source": "paper PMC9887757", "about": "(2023)", "binders": {"B1": {"name": "BKPyV VLP genotype Ia (VP1 virus-like particles) (complex)", "chain": "MAPTKRKGECPGAAPKKPKEPVQVPKLLIKGGVEVLEVKTGVDAITEVECFLNPEMGDPDENLRGFSLKLSAENDFSSDSPERKMLPCYSTARIPLPNLNEDLTCGNLLMWEAVTVQTEVIGITSMLNLHAGSQKVHEHGGGKPIQGSNFHFFAVGGEPLEMQGVLMNYRSKYPDGTITPKNPTAQSQVMNTDHKAYLDKNNAYPVECWVPDPSRNENARYFGTFTGGENVPPVLHVTNTATTVLLDEQGVGPLCKADSLYVSAADICGLFTNSSGTQQWRGLARYFKIRLRKRSVKNPYPISFLLSDLINRRTQRVDGQPMYGMESQVEEVRVFDGTERLPGDPDMIRYIDKQGQLQTKML"}}, "biological_target": "41F17", "assay": "SPR; avidity", "data": [{"binder": "B1", "values": [{"measurement": "Kd", "value": 0.34, "unit": "nM"}]}]}
